Measurements taken from patent US20200283502A1 (PEPTICOM LTD., priority 2017, published 2020).
Where a SMILES comes first, the peptide text is derived from it. Where no end group is shown, it is not given here. [ ]: non-standard residue; d: D form. His(π-Me) = Cn1cncc1C[C@H](N)C(=O)O; NMeT = CN[C@H](C(=O)O)[C@@H](C)O; Cha = N[C@@H](CC1CCCCC1)C(=O)O

Target: T1, human GABA receptor (subunits α1β3γ2) (Homo sapiens, UniProt P14867+P28472)
T1 construct: expressed in transfected cells; host or cells: HEK293
T1 sequence (P14867 28-456): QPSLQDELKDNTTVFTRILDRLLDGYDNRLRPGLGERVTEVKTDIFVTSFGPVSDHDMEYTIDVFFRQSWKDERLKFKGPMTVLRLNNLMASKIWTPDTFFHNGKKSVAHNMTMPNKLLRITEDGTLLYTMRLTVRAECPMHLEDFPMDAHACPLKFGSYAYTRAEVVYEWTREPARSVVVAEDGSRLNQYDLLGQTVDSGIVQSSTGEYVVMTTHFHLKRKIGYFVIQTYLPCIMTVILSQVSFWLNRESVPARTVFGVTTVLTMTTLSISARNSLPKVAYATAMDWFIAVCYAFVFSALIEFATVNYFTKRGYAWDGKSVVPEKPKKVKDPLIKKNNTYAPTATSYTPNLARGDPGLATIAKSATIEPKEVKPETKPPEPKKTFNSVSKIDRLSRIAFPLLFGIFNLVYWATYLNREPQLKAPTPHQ
T1 sequence (P28472 26-473): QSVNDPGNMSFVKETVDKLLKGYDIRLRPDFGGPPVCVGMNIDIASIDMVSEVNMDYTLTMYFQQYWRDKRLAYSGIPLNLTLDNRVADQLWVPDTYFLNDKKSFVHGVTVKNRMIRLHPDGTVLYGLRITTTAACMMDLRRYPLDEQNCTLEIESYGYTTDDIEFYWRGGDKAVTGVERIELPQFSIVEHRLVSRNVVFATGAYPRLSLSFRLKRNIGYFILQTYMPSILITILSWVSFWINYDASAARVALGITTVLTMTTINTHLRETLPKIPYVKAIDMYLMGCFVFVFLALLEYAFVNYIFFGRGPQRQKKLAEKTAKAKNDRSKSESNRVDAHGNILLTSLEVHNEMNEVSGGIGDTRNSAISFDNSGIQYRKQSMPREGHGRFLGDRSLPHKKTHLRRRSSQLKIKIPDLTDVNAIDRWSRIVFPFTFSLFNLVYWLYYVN
T1 sequence (P18507 40-475 partner): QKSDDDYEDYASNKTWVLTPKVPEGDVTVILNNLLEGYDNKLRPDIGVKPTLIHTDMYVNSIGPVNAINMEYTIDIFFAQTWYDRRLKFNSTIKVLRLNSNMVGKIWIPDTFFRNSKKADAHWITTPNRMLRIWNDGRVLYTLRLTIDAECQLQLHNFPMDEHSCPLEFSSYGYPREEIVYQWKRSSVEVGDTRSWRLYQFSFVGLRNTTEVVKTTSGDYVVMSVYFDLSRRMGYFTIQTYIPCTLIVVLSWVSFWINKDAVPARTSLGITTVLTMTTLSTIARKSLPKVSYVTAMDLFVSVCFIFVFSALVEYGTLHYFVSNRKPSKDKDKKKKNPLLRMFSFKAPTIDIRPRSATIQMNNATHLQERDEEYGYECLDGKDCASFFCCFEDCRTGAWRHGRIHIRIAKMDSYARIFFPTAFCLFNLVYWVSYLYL
Test: manual whole-cell patch-clamp of GABA receptor-mediated Cl− current in HEK293 cells
Type: cell-based
Conditions: for Activity: human α1β3γ2 GABAA receptor, electrophysiological recordings; for potentiation of human GABA receptor-mediated Cl− current: receptor expressed in HEK293 cells, manual whole-cell patch-clamp
Description: All the compounds of the present invention were tested and validated using electrophysiological recordings on the human GABAA receptor comprising of the following subunits α1β3γ2.
The peptides of the present invention are capable of activating, inhibiting or modulating the GABAA receptor. These peptides were derived in-silico and tested in-vitro in cell cultures. […] The human GABA receptor (subunits α1β3γ2) used in these experiments was expressed in HEK293 cells in manual whole-cell patch-clamp settings.

Compound: C[C@@H](O)[C@H](NC(=O)[C@@H](N)CC1CCCCC1)C(=O)N[C@@H](Cc1c[nH]c2ccccc12)C(=O)N[C@@H](CCC(N)=O)C(=O)N[C@H](C=O)CCC(=O)O [SEQ ID NO:2, (L-cyclohexyl-alanine)- TWQE] (H-[Cha]TWQE-aldehyde)
- Activity: Positive allosteric modulator
- potentiation of human GABA receptor-mediated Cl− current: selective potentiation

Compound: C[C@@H](O)[C@@H](C(=O)N[C@@H](Cc1c[nH]c2ccccc12)C(=O)N[C@@H](CCC(N)=O)C(=O)N[C@H](C=O)CCC(=O)O)N(C)C(=O)[C@@H](N)Cc1cncn1C [SEQ ID NO:3, (3-methyl-L-histidine)-(N-methyl-threonine)-WQE] (H-[His(π-Me)][NMeT]WQE-aldehyde)
- Activity: Positive allosteric modulator
- potentiation of human GABA receptor-mediated Cl− current: selective potentiation

Compound: C[C@@H](O)[C@@H](C(=O)N[C@H](Cc1c[nH]c2ccccc12)C(=O)N[C@@H](CCC(N)=O)C(=O)N[C@H](C=O)CCC(=O)O)N(C)C(=O)[C@@H](N)Cc1cncn1C [SEQ ID NO:4, (3-methyl-L-histidine)-(N-methyl-threonine)-(N-methyl-tryptophan)-QE] (H-[His(π-Me)][NMeT][dW]QE-aldehyde)
- Activity: Positive allosteric modulator
- potentiation of human GABA receptor-mediated Cl− current: selective potentiation

Compound: Arg—Phe—His—Ser (RFHS; printed: Arg—Phe—His—Ser) [SEQ ID NO:10]
- Activity: Positive allosteric modulator
- potentiation of human GABA receptor-mediated Cl− current: selective potentiation

Compound: Arg—Thr—Trp—Gly—Glu (RTWGE; printed: Arg—Thr—Trp—Gly—Glu) [SEQ ID NO:13]
- potentiation of human GABA receptor-mediated Cl− current: selective potentiation

Compound: His—Ile—Ser—NH2 [SEQ ID NO:9]
- Activity: Positive allosteric modulator
- potentiation of human GABA receptor-mediated Cl− current: selective potentiation

Compound: His—Pro—Pro—Ala—Thr (HPPAT; printed: His—Pro—Pro—Ala—Thr) [SEQ ID NO:8]
- Activity: Positive allosteric modulator
- potentiation of human GABA receptor-mediated Cl− current: selective potentiation

Compound: His—Pro—Trp—Gln (HPWQ; printed: His—Pro—Trp—Gln) [SEQ ID NO:15]
- Activity: Positive allosteric modulator
- potentiation of human GABA receptor-mediated Cl− current: selective potentiation

Compound: His—Thr—Thr—Gly—Asp (HTTGD; printed: His—Thr—Thr—Gly—Asp) [SEQ ID NO:12]
- Activity: Positive allosteric modulator
- potentiation of human GABA receptor-mediated Cl− current: selective potentiation

Compound: His—Thr—Trp—Gln—Glu (HTWQE; printed: His—Thr—Trp—Gln—Glu) [SEQ ID NO:1]
- Activity: Positive allosteric modulator
- potentiation of human GABA receptor-mediated Cl− current: selective potentiation

Compound: His—Thr—Trp—Lys—Lys (HTWKK; printed: His—Thr—Trp—Lys—Lys) [SEQ ID NO:6]
- Activity: Positive allosteric modulator
- potentiation of human GABA receptor-mediated Cl− current: selective potentiation

Compound: His—Thr—Trp—Pro (HTWP; printed: His—Thr—Trp—Pro) [SEQ ID NO:14]
- Activity: Positive allosteric modulator
- potentiation of human GABA receptor-mediated Cl− current: selective potentiation

Compound: His—Thr—Trp—Tyr—Glu (HTWYE; printed: His—Thr—Trp—Tyr—Glu) [SEQ ID NO:7]
- Activity: Positive allosteric modulator
- potentiation of human GABA receptor-mediated Cl− current: selective potentiation

Compound: Thr—Glu—Ser—Lys—Gly—NH2 (TESKG-NH2) [SEQ ID NO:11]
- Activity: Positive allosteric modulator
- potentiation of human GABA receptor-mediated Cl− current: selective potentiation
